This note sets out measurements from article PMC3963918, “CCHCR1 Interacts Specifically with the E2 Protein of Human Papillomavirus Type 16 on a Surface Overlapping BRD4 Binding” (PLoS ONE, 2014).

Test [1] concerns the target T1, HPV16 E2 protein fused to Gaussia luciferase fragment GL2 (human papillomavirus type 16, UniProt P03120 1-365).
T1 construct: source: 293 T cells, transfected (pSPICA-N2), in lysate
T1 sequence: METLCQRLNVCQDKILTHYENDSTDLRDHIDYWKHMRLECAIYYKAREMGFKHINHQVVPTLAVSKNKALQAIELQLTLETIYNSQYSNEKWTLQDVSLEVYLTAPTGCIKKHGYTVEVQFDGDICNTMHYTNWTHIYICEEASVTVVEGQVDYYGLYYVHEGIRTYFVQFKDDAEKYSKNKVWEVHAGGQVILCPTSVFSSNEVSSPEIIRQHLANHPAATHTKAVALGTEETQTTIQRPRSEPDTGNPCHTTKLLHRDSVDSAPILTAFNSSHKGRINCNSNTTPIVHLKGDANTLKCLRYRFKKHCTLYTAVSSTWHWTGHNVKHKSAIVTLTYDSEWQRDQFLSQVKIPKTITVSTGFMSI
Kind of test: split reporter (BiFC, NanoBiT). The following applies: partners not purified.

The target in test [2] is T1, HPV16 E2 protein fused to Gaussia …. As to the kind of experiment: split reporter (BiFC, NanoBiT); GPCA competition: GL1 and GL2 partners plus a 3XFlag-tagged challenging protein (0.5 ug of each plasmid) in 293 T cells, 12-well plates, harvested 40 h after transfection; NLR relative to empty plasmid. The following applies: partners not purified.

B1: CCHCR1 (Coiled-Coil alpha HeliCal Rod protein 1), polypeptide from amino acid 137 to the stop codon, fused to Gaussia luciferase fragment GL1 (domain or fragment)
chain: KAGRAEAEGLRAALAGAEVVRKNLEEGSQRELEEVQRLHQEQLSSLTQAHEEALSSLTSKAEGLEKSLSSLETRRAGEAKELAEAQREAELLRKQLSKTQEDLEAQVTLVENLRKYVGEQVPSEVHSQTWELERQKLLETMQHLQEDRDSLHATAELLQVRVQSLTHILALQEEELTRKVQPSDSLEPEFTRKCQSLLNRWREKVFALMVQLKAQELEHSDSVKQLKGQVASLQEKVTSQSQEQAILQRSLQDKAAEVEVERMGAKGLQLELSRAQEARRRWQQQTASAEEQLRLVVNAVSSSQIWLETTMAKVEGAAAQLPSLNNRLSYAVRKVHTIRGLIARKLALAQLRQESCPLPPPVTDVSLELQQLREERNRLDAELQLSARLIQQEVGRAREQGEAERQQLSKVAQQLEQELQQTQESLASLGLQLEVARQGQQESTEEAASLRQELTQQQELYGQALQEKVAEVETRLREQLSDTERRLNEARREHAKAVVSLRQIQRRAAQEKERSQELRRLQEEARKEEGQRLARRLQELERDKNLMLATLQQEGLLSRYKQQRLLTVLPSLLDKKKSVVSSPRPPECSASAPVAAAVPTRESIKGSLSVLLDDLQDLSEAISKEEAVCQGDNLDRCSSSNPQMSS
notes: also called Pg8; SBP
For B1, the “NLR (Normalized Luminescence Ratio)” value in test [1] was roughly 250.

B2: 3XFLAG-tagged CCHCR1, shorter E2-interacting isoform (amino acid 137 to the stop codon) (domain or fragment)
chain: KAGRAEAEGLRAALAGAEVVRKNLEEGSQRELEEVQRLHQEQLSSLTQAHEEALSSLTSKAEGLEKSLSSLETRRAGEAKELAEAQREAELLRKQLSKTQEDLEAQVTLVENLRKYVGEQVPSEVHSQTWELERQKLLETMQHLQEDRDSLHATAELLQVRVQSLTHILALQEEELTRKVQPSDSLEPEFTRKCQSLLNRWREKVFALMVQLKAQELEHSDSVKQLKGQVASLQEKVTSQSQEQAILQRSLQDKAAEVEVERMGAKGLQLELSRAQEARRRWQQQTASAEEQLRLVVNAVSSSQIWLETTMAKVEGAAAQLPSLNNRLSYAVRKVHTIRGLIARKLALAQLRQESCPLPPPVTDVSLELQQLREERNRLDAELQLSARLIQQEVGRAREQGEAERQQLSKVAQQLEQELQQTQESLASLGLQLEVARQGQQESTEEAASLRQELTQQQELYGQALQEKVAEVETRLREQLSDTERRLNEARREHAKAVVSLRQIQRRAAQEKERSQELRRLQEEARKEEGQRLARRLQELERDKNLMLATLQQEGLLSRYKQQRLLTVLPSLLDKKKSVVSSPRPPECSASAPVAAAVPTRESIKGSLSVLLDDLQDLSEAISKEEAVCQGDNLDRCSSSNPQMSS
notes: also called Flag-CCHCR1; 3XFLAG CCHCR1; source: 293 T cells, transfected (pCiNeo-3XF), in lysate
B2: the “fold decrease of the NLR of HPV16 E2 with BRD4 in the presence of CCHCR1” value in test [2] worked out at 5 fold.
